From patent publication US20080089931

Target: EphA2 receptor tyrosine kinase (UniProt P29317)
Sequence of UniProt P29317 (P29317 whole entry, looked up): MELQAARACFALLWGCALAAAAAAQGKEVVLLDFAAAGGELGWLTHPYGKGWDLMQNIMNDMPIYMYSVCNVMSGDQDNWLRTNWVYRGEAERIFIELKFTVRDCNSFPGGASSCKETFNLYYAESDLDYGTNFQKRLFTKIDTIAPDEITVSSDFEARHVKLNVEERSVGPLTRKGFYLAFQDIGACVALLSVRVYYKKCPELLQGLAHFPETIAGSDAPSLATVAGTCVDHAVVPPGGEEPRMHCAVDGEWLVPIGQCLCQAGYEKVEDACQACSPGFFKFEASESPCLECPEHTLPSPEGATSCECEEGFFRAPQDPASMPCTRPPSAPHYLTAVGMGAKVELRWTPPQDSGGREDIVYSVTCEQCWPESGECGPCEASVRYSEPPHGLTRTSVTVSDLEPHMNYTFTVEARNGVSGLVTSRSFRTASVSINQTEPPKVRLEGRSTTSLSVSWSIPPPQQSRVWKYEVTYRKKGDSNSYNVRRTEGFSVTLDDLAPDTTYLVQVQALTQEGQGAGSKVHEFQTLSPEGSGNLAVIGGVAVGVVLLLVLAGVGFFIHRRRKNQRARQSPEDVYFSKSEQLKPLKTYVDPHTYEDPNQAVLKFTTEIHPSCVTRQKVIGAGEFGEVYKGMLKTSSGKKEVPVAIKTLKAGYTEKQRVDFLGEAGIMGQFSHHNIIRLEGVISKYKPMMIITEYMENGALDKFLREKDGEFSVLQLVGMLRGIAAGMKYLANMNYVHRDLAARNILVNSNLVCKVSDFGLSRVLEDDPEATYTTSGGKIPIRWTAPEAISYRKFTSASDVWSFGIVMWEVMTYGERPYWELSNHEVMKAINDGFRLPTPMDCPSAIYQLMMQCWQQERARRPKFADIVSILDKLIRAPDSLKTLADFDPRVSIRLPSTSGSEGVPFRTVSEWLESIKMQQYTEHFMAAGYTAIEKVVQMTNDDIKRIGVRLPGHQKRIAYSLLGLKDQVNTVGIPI

With purified LMW-PTP protein the “dephosphorylation of immunoprecipitated EphA2 (phosphotyrosine Western blot)” value was “the LMW-PTP dephosphorylated EphA2 in an enzyme concentration-dependent and a time-dependent manner”.
